The values below come from patent US20140087995A1 (published 2014).

Sequences and labels used below:
T1: human calcitonin receptor (human, UniProt P30988 25-474)
T1 construct: whole, on cells; Assay used cell membranes, not intact cells; also called hCTR; hCT
T1 sequence (looked up): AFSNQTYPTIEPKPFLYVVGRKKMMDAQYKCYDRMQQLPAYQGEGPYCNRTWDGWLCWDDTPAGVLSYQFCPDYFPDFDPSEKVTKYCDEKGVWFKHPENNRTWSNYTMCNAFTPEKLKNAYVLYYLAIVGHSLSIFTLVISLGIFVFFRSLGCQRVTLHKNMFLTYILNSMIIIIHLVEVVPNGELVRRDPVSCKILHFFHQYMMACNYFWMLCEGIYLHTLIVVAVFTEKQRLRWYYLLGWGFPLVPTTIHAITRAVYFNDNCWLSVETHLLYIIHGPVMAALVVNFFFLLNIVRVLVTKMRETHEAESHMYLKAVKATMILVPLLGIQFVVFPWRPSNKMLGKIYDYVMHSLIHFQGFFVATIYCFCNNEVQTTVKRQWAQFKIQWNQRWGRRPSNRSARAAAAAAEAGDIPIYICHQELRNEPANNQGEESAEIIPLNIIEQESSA

T2: human amylin receptor (amylin 3(a) receptor: human calcitonin receptor with RAMP-3) (human, UniProt P30988 25-474; O60896 24-148)
T2 construct: whole, on cells; Assay used cell membranes of the Amylin 3(a)/CRE-luc BHK cells, not intact cells; also called hAmylin-R; hAmylinR
T2 sequence (looked up) 1: T1 sequence (looked up)
T2 sequence (looked up) 2: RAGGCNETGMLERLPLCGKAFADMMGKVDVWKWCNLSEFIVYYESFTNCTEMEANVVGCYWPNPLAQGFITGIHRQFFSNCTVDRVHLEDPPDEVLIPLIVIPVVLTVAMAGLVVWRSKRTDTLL

B1: N^ε1-[(4S)-4-carboxy-4-(19-carboxynonadecanoylamino)butanoyl]-[Ala14,Arg17,Pro21,Pro27,His34]-h-amylin (peptide)
peptide: K([γGlu-C20 diacid])CNTATCATQRLAAFLRHSSPNFGAIPSSTNVGHNTY-NH2
modifications: disulfide 2-7; N-terminus assumed
SMILES: CC[C@H](C)[C@H](NC(=O)[C@H](C)NC(=O)CNC(=O)[C@H](Cc1ccccc1)NC(=O)[C@H](CC(N)=O)NC(=O)[C@@H]1CCCN1C(=O)[C@H](CO)NC(=O)[C@H](CO)NC(=O)[C@H](Cc1c[nH]cn1)NC(=O)[C@H](CCCNC(=N)N)NC(=O)[C@H](CC(C)C)NC(=O)[C@H](Cc1ccccc1)NC(=O)[C@H](C)NC(=O)[C@H](C)NC(=O)[C@H](CC(C)C)NC(=O)[C@H](CCCNC(=N)N)NC(=O)[C@H](CCC(N)=O)NC(=O)[C@@H](NC(=O)[C@H](C)NC(=O)[C@@H]1CSSC[C@H](NC(=O)[C@@H](N)CCCCNC(=O)CC[C@H](NC(=O)CCCCCCCCCCCCCCCCCCC(=O)O)C(=O)O)C(=O)N[C@@H](CC(N)=O)C(=O)N[C@@H]([C@@H](C)O)C(=O)N[C@@H](C)C(=O)N[C@@H]([C@@H](C)O)C(=O)N1)[C@@H](C)O)C(=O)N1CCC[C@H]1C(=O)N[C@@H](CO)C(=O)N[C@@H](CO)C(=O)N[C@H](C(=O)N[C@@H](CC(N)=O)C(=O)N[C@H](C(=O)NCC(=O)N[C@@H](Cc1c[nH]cn1)C(=O)N[C@@H](CC(N)=O)C(=O)N[C@H](C(=O)N[C@@H](Cc1ccc(O)cc1)C(N)=O)[C@@H](C)O)C(C)C)[C@@H](C)O
notes: also called compound 93
B2: N^ε1-[(4S)-4-carboxy-4-(19-carboxynonadecanoylamino)butanoyl]-[Arg17,Pro21,Pro27,His34]-h-amylin (peptide)
peptide: K([γGlu-C20 diacid])CNTATCATQRLANFLRHSSPNFGAIPSSTNVGHNTY-NH2
modifications: disulfide 2-7; N-terminus assumed
SMILES: CC[C@H](C)[C@H](NC(=O)[C@H](C)NC(=O)CNC(=O)[C@H](Cc1ccccc1)NC(=O)[C@H](CC(N)=O)NC(=O)[C@@H]1CCCN1C(=O)[C@H](CO)NC(=O)[C@H](CO)NC(=O)[C@H](Cc1c[nH]cn1)NC(=O)[C@H](CCCNC(=N)N)NC(=O)[C@H](CC(C)C)NC(=O)[C@H](Cc1ccccc1)NC(=O)[C@H](CC(N)=O)NC(=O)[C@H](C)NC(=O)[C@H](CC(C)C)NC(=O)[C@H](CCCNC(=N)N)NC(=O)[C@H](CCC(N)=O)NC(=O)[C@@H](NC(=O)[C@H](C)NC(=O)[C@@H]1CSSC[C@H](NC(=O)[C@@H](N)CCCCNC(=O)CC[C@H](NC(=O)CCCCCCCCCCCCCCCCCCC(=O)O)C(=O)O)C(=O)N[C@@H](CC(N)=O)C(=O)N[C@@H]([C@@H](C)O)C(=O)N[C@@H](C)C(=O)N[C@@H]([C@@H](C)O)C(=O)N1)[C@@H](C)O)C(=O)N1CCC[C@H]1C(=O)N[C@@H](CO)C(=O)N[C@@H](CO)C(=O)N[C@H](C(=O)N[C@@H](CC(N)=O)C(=O)N[C@H](C(=O)NCC(=O)N[C@@H](Cc1c[nH]cn1)C(=O)N[C@@H](CC(N)=O)C(=O)N[C@H](C(=O)N[C@@H](Cc1ccc(O)cc1)C(N)=O)[C@@H](C)O)C(C)C)[C@@H](C)O
notes: also called compound 77
B3: N^ε1-[(4S)-4-carboxy-4-(19-carboxynonadecanoylamino)butanoyl]-[Arg14,Arg17,Pro21,Pro27]-h-amylin (peptide)
peptide: K([γGlu-C20 diacid])CNTATCATQRLARFLRHSSPNFGAIPSSTNVGSNTY-NH2
modifications: disulfide 2-7; N-terminus assumed
SMILES: CC[C@H](C)[C@H](NC(=O)[C@H](C)NC(=O)CNC(=O)[C@H](Cc1ccccc1)NC(=O)[C@H](CC(N)=O)NC(=O)[C@@H]1CCCN1C(=O)[C@H](CO)NC(=O)[C@H](CO)NC(=O)[C@H](Cc1c[nH]cn1)NC(=O)[C@H](CCCNC(=N)N)NC(=O)[C@H](CC(C)C)NC(=O)[C@H](Cc1ccccc1)NC(=O)[C@H](CCCNC(=N)N)NC(=O)[C@H](C)NC(=O)[C@H](CC(C)C)NC(=O)[C@H](CCCNC(=N)N)NC(=O)[C@H](CCC(N)=O)NC(=O)[C@@H](NC(=O)[C@H](C)NC(=O)[C@@H]1CSSC[C@H](NC(=O)[C@@H](N)CCCCNC(=O)CC[C@H](NC(=O)CCCCCCCCCCCCCCCCCCC(=O)O)C(=O)O)C(=O)N[C@@H](CC(N)=O)C(=O)N[C@@H]([C@@H](C)O)C(=O)N[C@@H](C)C(=O)N[C@@H]([C@@H](C)O)C(=O)N1)[C@@H](C)O)C(=O)N1CCC[C@H]1C(=O)N[C@@H](CO)C(=O)N[C@@H](CO)C(=O)N[C@H](C(=O)N[C@@H](CC(N)=O)C(=O)N[C@H](C(=O)NCC(=O)N[C@@H](CO)C(=O)N[C@@H](CC(N)=O)C(=O)N[C@H](C(=O)N[C@@H](Cc1ccc(O)cc1)C(N)=O)[C@@H](C)O)C(C)C)[C@@H](C)O
notes: also called compound 83
B4: N^ε1-[(4S)-4-carboxy-4-(19-carboxynonadecanoylamino)butanoyl]-[Arg17,Pro21,Pro27,Arg34]-h-amylin (peptide)
peptide: K([γGlu-C20 diacid])CNTATCATQRLANFLRHSSPNFGAIPSSTNVGRNTY-NH2
modifications: disulfide 2-7; N-terminus assumed
SMILES: CC[C@H](C)[C@H](NC(=O)[C@H](C)NC(=O)CNC(=O)[C@H](Cc1ccccc1)NC(=O)[C@H](CC(N)=O)NC(=O)[C@@H]1CCCN1C(=O)[C@H](CO)NC(=O)[C@H](CO)NC(=O)[C@H](Cc1c[nH]cn1)NC(=O)[C@H](CCCNC(=N)N)NC(=O)[C@H](CC(C)C)NC(=O)[C@H](Cc1ccccc1)NC(=O)[C@H](CC(N)=O)NC(=O)[C@H](C)NC(=O)[C@H](CC(C)C)NC(=O)[C@H](CCCNC(=N)N)NC(=O)[C@H](CCC(N)=O)NC(=O)[C@@H](NC(=O)[C@H](C)NC(=O)[C@@H]1CSSC[C@H](NC(=O)[C@@H](N)CCCCNC(=O)CC[C@H](NC(=O)CCCCCCCCCCCCCCCCCCC(=O)O)C(=O)O)C(=O)N[C@@H](CC(N)=O)C(=O)N[C@@H]([C@@H](C)O)C(=O)N[C@@H](C)C(=O)N[C@@H]([C@@H](C)O)C(=O)N1)[C@@H](C)O)C(=O)N1CCC[C@H]1C(=O)N[C@@H](CO)C(=O)N[C@@H](CO)C(=O)N[C@H](C(=O)N[C@@H](CC(N)=O)C(=O)N[C@H](C(=O)NCC(=O)N[C@@H](CCCNC(=N)N)C(=O)N[C@@H](CC(N)=O)C(=O)N[C@H](C(=O)N[C@@H](Cc1ccc(O)cc1)C(N)=O)[C@@H](C)O)C(C)C)[C@@H](C)O
notes: also called compound 79
B5: N^ε1-[(4S)-4-carboxy-4-(19-carboxynonadecanoylamino)butanoyl]-[Ala14,Arg17,Pro21,Pro27,Pro34]-h-amylin (peptide)
peptide: K([γGlu-C20 diacid])CNTATCATQRLAAFLRHSSPNFGAIPSSTNVGPNTY-NH2
modifications: disulfide 2-7; N-terminus assumed
SMILES: CC[C@H](C)[C@H](NC(=O)[C@H](C)NC(=O)CNC(=O)[C@H](Cc1ccccc1)NC(=O)[C@H](CC(N)=O)NC(=O)[C@@H]1CCCN1C(=O)[C@H](CO)NC(=O)[C@H](CO)NC(=O)[C@H](Cc1c[nH]cn1)NC(=O)[C@H](CCCNC(=N)N)NC(=O)[C@H](CC(C)C)NC(=O)[C@H](Cc1ccccc1)NC(=O)[C@H](C)NC(=O)[C@H](C)NC(=O)[C@H](CC(C)C)NC(=O)[C@H](CCCNC(=N)N)NC(=O)[C@H](CCC(N)=O)NC(=O)[C@@H](NC(=O)[C@H](C)NC(=O)[C@@H]1CSSC[C@H](NC(=O)[C@@H](N)CCCCNC(=O)CC[C@H](NC(=O)CCCCCCCCCCCCCCCCCCC(=O)O)C(=O)O)C(=O)N[C@@H](CC(N)=O)C(=O)N[C@@H]([C@@H](C)O)C(=O)N[C@@H](C)C(=O)N[C@@H]([C@@H](C)O)C(=O)N1)[C@@H](C)O)C(=O)N1CCC[C@H]1C(=O)N[C@@H](CO)C(=O)N[C@@H](CO)C(=O)N[C@H](C(=O)N[C@@H](CC(N)=O)C(=O)N[C@H](C(=O)NCC(=O)N1CCC[C@H]1C(=O)N[C@@H](CC(N)=O)C(=O)N[C@H](C(=O)N[C@@H](Cc1ccc(O)cc1)C(N)=O)[C@@H](C)O)C(C)C)[C@@H](C)O
notes: also called compound 94

Numbered stars: 1 amine (or outer) side, 2 acyl side, 3 side chain; on linkers, the order of the positions; unused ones are H or OH. Bridge positions count the residues as written; N and C are the ends. Side chains are listed from the residue outwards. Ends that are not written are not given here. * marks the point of attachment. C20 diacid = O=C(O)CCCCCCCCCCCCCCCCCCC(=O)*; γGlu = O=C(O)[C@H](CCC(=O)[*:2])N[*:1]

The target of one test is T1, human calcitonin receptor. Kind of test: ratio IC50 hCTR / IC50 hAmylin-R (reference: human amylin receptor), SPA competition assays. Put shortly: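 Membranes (35 ng/μL final) + SPA beads, 50 mM Hepes pH 7.4 buffer with 1 mM CaCl2, 5 mM MgCl₂, 0.1% OA, 0.02% Tween20; 120 min, 25° C, shaking; centrifuged, counted; IC₅₀ by one-site binding competition.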
Turning to B1, the “Ratio hCT/hAmylin binding” value is 101.

Turning to B2, the “Ratio hCT/hAmylin binding” value amounted to 118.

As for B3, the “Ratio hCT/hAmylin binding” value turned out to be 146.

B4: the “Ratio hCT/hAmylin binding” value was 46.1.

In the case of B5, the “Ratio hCT/hAmylin binding” value is 46.3.

In a further test the target is T1, human calcitonin receptor. Put plainly: SPA competition with 125I-calcitonin on membranes of BHK cells with human calcitonin receptor (Assay VII). In short, it runs like this: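 BHK hCTR membranes 35 ng/μL + SPA beads 0.05 mg/well; buffer 50 mM Hepes pH 7.4, 1 mM CaCl2, 5 mM MgCl₂, 0.1% OA, 0.02% Tween20. 120 min, 25° C., shaking. Scintillation count; IC50 by one-site binding competition.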
Turning to B1, the IC50 was 17.8 nM.

Regarding B2, the IC50 was determined as 50.7 nM.

Consider B3, for which the IC50 is 137 nM.

Regarding B4, the IC50 was 36.4 nM.

As to B5, the half-inhibitory concentration (IC50) was 6.86 nM.

The target of another test is T2, human amylin receptor (amylin 3(a) …). Put plainly: SPA competition with 125I-rat amylin on membranes of BHK cells with human calcitonin receptor and RAMP-3 (Assay V). In short, it runs like this:
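SPA beads + BHK amylin 3(a)/CRE-luc membranes, 35 ng/μL final; buffer 50 mM Hepes pH 7.4, 1 mM CaCl2, 5 mM MgCl₂, 0.1% OA, 0.02% Tween20. 120 min, 25° C, shaken; scintillation count. IC₅₀ by one-site binding competition fit, taken as receptor affinity.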
Turning to B1, the IC50 came out at 0.176 nM.

Turning to B2, the half-inhibitory concentration (IC50) was found to be 0.428 nM.

On to B3, for which the IC50 turned out to be 0.939 nM.

For the molecule B4, the IC50 is 0.79 nM.

Regarding B5, the half-maximal inhibitory concentration (IC50) worked out at 0.148 nM.
